Measured values taken from patent US20130096072A1 (Genentech, published 2013).
Bridges are numbered along the chain shown (N, C = ends). Where no end group is shown, it is not given here.

How the values were obtained:
[1] = target: scHGF (non-cleavable form of full-length pro-HGF with a mutated cleavage site) (human, UniProt P14210 32-728); assay: cell-based or functional assay
[2] = target: T1, scHGF β-chain (zymogen-like HGF β, residues Asn479 to Ser728, R494E, C-terminal His-tag) (human, UniProt P14210 479-728); assay: BLI scHGF β activation/Met binding assay
T1 construct: Expressed in insect cells; also called zHGF β; zymogen-like form of HGF β; not shown: C-terminal His-tag

[3] = target: T1, scHGF β-chain (zymogen-like HGF β, …); assay: BLI, peptide-dependent activation of zHGF β binding to surface immobilized Met ECD
Procedure: (§1) Met binding assays were carried out utilizing the OctetRed™ biolayer interferometry instrument (ForteBio, Inc.) as reported previously (Landgraf, K. E. et al. (2010) J Biol Chem 285: 40362-72). Biotinylated Met ECD (Sema/PSI-AviTag) was captured on the surface of streptavidin optical sensor tips (SA biosensors, ForteBio, Inc.), and transferred into buffer containing 0.5 μM scHGF β-chain variants in the presence of increasing concentration of indicated peptides. Association and dissociation reactions were monitored to ensure reversible binding between scHGF β and Met. Binding was quantified using the steady-state levels of surface response from the association reaction. Equilibrium constants were derived by least squares fitting of the titration data to a single-site binding equation. Errors reported are ±stdev of n=3 independent experiments.

[4] = target: T1, scHGF β-chain (zymogen-like HGF β, …); assay: BLI (OctetRed) scHGF β activation/Met binding assay: peptide titrated into 0.5 µM scHGF β over biotinylated Met Sema/PSI on streptavidin tips; steady-state single-site fit
Procedure: as §1
Based on the finding that the consensus ZAPs contain features consistent with binding and inserting into the activation pocket, several related peptides were synthesized and utilized in a previously established scHGF β activation assay to assess their affinities and ability to active Met binding (Landgraf, K. E. et al. (2010) J Biol Chem 285: 40362-72). Since scHGF β can only weakly interact with the Met Sema-PSI domain compared to the active HGF β form, biolayer interferometry was used in the activation assay to measure the ability of a peptide to directly enhance the binding affinity of scHGF β to a streptavidin sensor surface coated with biotinylated Met (Landgraf, K. E. et al. (2010) J Biol Chem 285: 40362-72). Thus, titration of an activator peptide should result in a significant increase in the surface response signal due to enhanced scHGF β binding to Met.

[5] = target: T1, scHGF β-chain (zymogen-like HGF β, …); assay: activity-based phage sorting: library with 0.5 µM scHGF β in solution, complex captured on a Met Sema-PSI coated plate; the clones as a group are plotted in FIG. 9B
Procedure: Where activity-based sorting was conducted, the phage library was incubated in solution with 0.5 μM scHGF β at 4° C. then the mixture was applied to a Maxi-Sorp plate coated with 5 μg/ml Met Sema-PSI ECD protein for capture of activated complex. To analyze phage clones from the activity-based sorting two ELISAs were carried out separately to analyze binding and activity. The first ELISA measured direct phage binding to wells coated with 5 μg/ml scHGF β relative to a BSA control. The second activity ELISA measured phage binding to wells coated with 5 μg/ml Met in the presence or absence (negative control) of 0.5 μM scHGF β in solution. The data from these two ELISAs were plotted with direct binding on the y-axis and Met capture (activity) on the x-axis.
The new 15-mer ZAP-gene VIII phage library contained two main regions that were preferentially shielded from hard-randomization, the N-terminal motif which inserted into the activation pocket and a portion of the reverse turn motif that packs against the protein surface in the bound state (FIG. 8A). […] Phage clones from the solution sort and activity-based sort were sequenced and subjected to a 2-dimensional ELISA analysis, where the clones were analyzed for (i) direct scHGF β binding and (ii) the ability of phage clones to be captured by Met only in the presence of scHGF β.

T1 sequence (P14210 479-728 R494E): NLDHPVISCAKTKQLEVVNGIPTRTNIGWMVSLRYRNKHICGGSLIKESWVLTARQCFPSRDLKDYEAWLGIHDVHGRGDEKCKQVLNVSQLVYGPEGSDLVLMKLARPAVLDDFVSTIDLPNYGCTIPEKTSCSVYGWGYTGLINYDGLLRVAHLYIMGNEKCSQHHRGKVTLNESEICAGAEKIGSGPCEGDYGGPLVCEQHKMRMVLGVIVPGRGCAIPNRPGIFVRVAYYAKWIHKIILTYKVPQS
scHGF (non-cleavable form of full-length pro-HGF with a mutated cleavage site), sequence (P14210 32-728 limits assumed, stated change not applied): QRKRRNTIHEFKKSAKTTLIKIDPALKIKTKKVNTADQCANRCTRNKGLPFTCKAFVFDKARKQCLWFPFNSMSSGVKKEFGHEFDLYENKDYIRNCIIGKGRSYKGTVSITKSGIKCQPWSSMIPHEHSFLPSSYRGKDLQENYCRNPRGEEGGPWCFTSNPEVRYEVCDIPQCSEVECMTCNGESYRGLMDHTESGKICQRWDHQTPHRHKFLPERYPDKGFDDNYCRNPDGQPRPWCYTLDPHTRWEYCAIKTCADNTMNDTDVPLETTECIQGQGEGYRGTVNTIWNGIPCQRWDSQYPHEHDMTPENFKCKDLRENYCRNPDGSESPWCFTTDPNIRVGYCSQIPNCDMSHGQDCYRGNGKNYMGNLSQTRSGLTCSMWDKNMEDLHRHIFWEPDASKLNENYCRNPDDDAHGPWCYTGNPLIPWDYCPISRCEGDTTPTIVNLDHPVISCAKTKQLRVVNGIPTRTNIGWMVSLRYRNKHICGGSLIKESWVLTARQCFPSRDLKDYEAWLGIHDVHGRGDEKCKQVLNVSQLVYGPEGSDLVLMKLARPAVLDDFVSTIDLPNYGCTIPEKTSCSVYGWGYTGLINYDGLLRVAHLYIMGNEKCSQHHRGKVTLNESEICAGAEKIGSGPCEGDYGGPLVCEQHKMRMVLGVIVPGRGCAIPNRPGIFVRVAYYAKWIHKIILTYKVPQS

fold more potent than the peptides derived from the native N-terminus of the β-chain of HGF [2] [fold]	fold improvement over previous activators [3] [fold]	Kd [4] [µM]	binding result [5]	Binder	EC50, BxPC-3 cell survival assay, peptide titrated with scHGF [1] [µM]
~60	> 90	34		IVGGYPWWMDV-NH2 (Synthetic peptide; also called possibly ZAP.14) [IVGG.14 peptide]	~20
			binds	IIGGCPYWMDREECI (disulfide 5-14) [ZAP.03]	
